Laboratory results as given in the supplement of paper PMC5998384.

How the values were obtained:
[1] = tested on: HeLa Kyoto; assay: solubility change mitosis vs G1/S (difference of NP-40 vs SDS log2 ratios) (log2 ratio difference); higher = more soluble in mitosis
[2] = tested on: HeLa Kyoto; assay: solubility in G1/S (NP-40 vs SDS abundance) (log2 ratio); higher = more soluble; conditions: cell cycle stage: G1/S
[3] = tested on: HeLa Kyoto; assay: melting temperature (median over replicates), in situ; higher = more thermally stable
[4] = tested on: HeLa Kyoto; assay: thermal stability score vs G1/S (z-score of summed log2 fold changes over temperatures); higher = more thermally stable than in G1/S
[5] = cell cycle stage: early G1 (4.5 h after nocodazole release)
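For melting temperature (median over replicates), in situ in this document: HeLa Kyoto cells synchronized by double thymidine or nocodazole block, proteins quantified by TMT10plex mass spectrometry, three independent biological replicates.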
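For solubility change mitosis vs G1/S (difference of NP-40 vs SDS log2 ratios) in this document: synchronized HeLa Kyoto cells (double thymidine block for G1/S, nocodazole release for mitosis), protein amounts in NP-40 versus SDS lysates quantified by mass spectrometry, three biological replicates.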
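For solubility in G1/S (NP-40 vs SDS abundance) in this document: HeLa Kyoto cells arrested at G1/S by double thymidine block, proteins quantified by TMT10plex mass spectrometry in mild NP-40 versus SDS extracts, three biological replicates.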
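For thermal stability score vs G1/S (z-score of summed log2 fold changes over temperatures) in this document: synchronized HeLa Kyoto cells, proteins quantified by TMT10plex mass spectrometry, three biological replicates, mitosis taken 0.5 h after nocodazole release, G1/S directly after double thymidine block.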

Sequence | solubility change mitosis (log2) [1] | solubility in G1/S (log2) [2] | melting temperature ([3]; cell cycle stage: G1/S) [°C] | melting temperature ([3]; cell cycle stage: mitosis) [°C] | thermal stability score [4, 5] | thermal stability score ([4]; cell cycle stage: mitosis)
MGKKGKVGKSRRDKFYHLAKETGYRSRSAFKLIQLNRRFQFLQKARALLDLCAAPGGWLQVAAKFMPVSSLIVGVDLVPIKPLPNVVTLQQDITTERCRQALRKELKTWKVDVVLNDGAPNVGASWVHDAYSQAHLTLMALRLACDFLARGGSFITKVFRSRDYQPLLWIFQQLFRRVQATKPQASRHESAEIFVVCQGFLAPDKVDSKFFDPKFAFKEVEVQAKTVTELVTKKKPKAEGYAEGDLTLYHRTSVTDFLRAANPVDFLSKASEIMVDDEELAQHPATTEDIRVCCQDIRVLGRKELRSLLNWRTKLRRYVAKKLKEQAKALDISLSSGEEDEGDEEDSTAGTTKQPSKEEEEEEEEEQLNQTLAEMKAQEVAELKRKKKKLLREQRKQRERVELKMDLPGVSIADEGETGMFSLSTIRGHQLLEEVTQGDMSAADTFLSDLPRDDIYVSDVEDDGDDTSLDSDLDPEELAGVRGHQGLRDQKRMRLTEVQDDKEEEEEENPLLVPLEEKAVLQEEQANLWFSKGSFAGIEDDADEALEISQAQLLFENRRKGRQQQQKQQLPQTPPSCLKTEIMSPLYQDEAPKGTEASSGTEAATGLEGEEKDGISDSDSSTSSEEEESWEPLRGKKRSRGPKSDDDGFEIVPIEDPAKHRILDPEGLALGAVIASSKKAKRDLIDNSFNRYTFNEDEGELPEWFVQEEKQHRIRQLPVGKKEVEHYRKRWREINARPIKKVAEAKARKKRRMLKRLEQTRKKAEAVVNTVDISEREKVAQLRSLYKKAGLGKEKRHVTYVVAKKGVGRKVRRPAGVRGHFKVVDSRMKKDQRAQQRKEQKKKHKRK [FTSJ3] | 1.11 | -2.41 | 49.7 | 52 | 4.05 | 7.76
MSAYPKSYNPFDDDGEDEGARPAPWRDARDLPDGPDAPADRQQYLRQEVLRRAEATAASTSRSLALMYESEKVGVASSEELARQRGVLERTEKMVDKMDQDLKISQKHINSIKSVFGGLVNYFKSKPVETPPEQNGTLTSQPNNRLKEAISTSKEQEAKYQASHPNLRKLDDTDPVPRGAGSAMSTDAYPKNPHLRAYHQKIDSNLDELSMGLGRLKDIALGMQTEIEEQDDILDRLTTKVDKLDVNIKSTERKVRQL [SNAP29] | 0.314 | 0.394 | 52.7 | 52.7 | -4.76 | -2.04
MSELTKELMELVWGTKSSPGLSDTIFCRWTQGFVFSESEGSALEQFEGGPCAVIAPVQAFLLKKLLFSSEKSSWRDCSEEEQKELLCHTLCDILESACCDHSGSYCLVSWLRGKTTEETASISGSPAESSCQVEHSSALAVEELGFERFHALIQKRSFRSLPELKDAVLDQYSMWGNKFGVLLFLYSVLLTKGIENIKNEIEDASEPLIDPVYGHGSQSLINLLLTGHAVSNVWDGDRECSGMKLLGIHEQAAVGFLTLMEALRYCKVGSYLKSPKFPIWIVGSETHLTVFFAKDMALVAPEAPSEQARRVFQTYDPEDNGFIPDSLLEDVMKALDLVSDPEYINLMKNKLDPEGLGIILLGPFLQEFFPDQGSSGPESFTVYHYNGLKQSNYNEKVMYVEGTAVVMGFEDPMLQTDDTPIKRCLQTKWPYIELLWTTDRSPSLN [FAM188A] | -0.147 | 0.00352 | – | 52.9 | -0.555 | -1.31
MTFQASHRSAWGKSRKKNWQYEGPTQKLFLKRNNVSAPDGPSDPSISVSSEQSGAQQPPALQVERIVDKRKNKKGKTEYLVRWKGYDSEDDTWEPEQHLVNCEEYIHDFNRRHTEKQKESTLTRTNRTSPNNARKQISRSTNSNFSKTSPKALVIGKDHESKNSQLFAASQKFRKNTAPSLSSRKNMDLAKSGIKILVPKSPVKSRTAVDGFQSESPEKLDPVEQGQEDTVAPEVAAEKPVGALLGPGAERARMGSRPRIHPLVPQVPGPVTAAMATGLAVNGKGTSPFMDALTANGTTNIQTSVTGVTASKRKFIDDRRDQPFDKRLRFSVRQTESAYRYRDIVVRKQDGFTHILLSTKSSENNSLNPEVMREVQSALSTAAADDSKLVLLSAVGSVFCCGLDFIYFIRRLTDDRKRESTKMAEAIRNFVNTFIQFKKPIIVAVNGPAIGLGASILPLCDVVWANEKAWFQTPYTTFGQSPDGCSTVMFPKIMGGASANEMLLSGRKLTAQEACGKGLVSQVFWPGTFTQEVMVRIKELASCNPVVLEESKALVRCNMKMELEQANERECEVLKKIWGSAQGMDSMLKYLQRKIDEF [CDYL] | 0.533 | -0.609 | 51.4 | 51 | 2.51 | 0.875
MERQKRKADIEKGLQFIQSTLPLKQEEYEAFLLKLVQNLFAEGNDLFREKDYKQALVQYMEGLNVADYAASDQVALPRELLCKLHVNRAACYFTMGLYEKALEDSEKALGLDSESIRALFRKARALNELGRHKEAYECSSRCSLALPHDESVTQLGQELAQKLGLRVRKAYKRPQELETFSLLSNGTAAGVADQGTSNGLGSIDDIETDCYVDPRGSPALLPSTPTMPLFPHVLDLLAPLDSSRTLPSTDSLDDFSDGDVFGPELDTLLDSLSLVQGGLSGSGVPSELPQLIPVFPGGTPLLPPVVGGSIPVSSPLPPASFGLVMDPSKKLAASVLDALDPPGPTLDPLDLLPYSETRLDALDSFGSTRGSLDKPDSFMEETNSQDHRPPSGAQKPAPSPEPCMPNTALLIKNPLAATHEFKQACQLCYPKTGPRAGDYTYREGLEHKCKRDILLGRLRSSEDQTWKRIRPRPTKTSFVGSYYLCKDMINKQDCKYGDNCTFAYHQEEIDVWTEERKGTLNRDLLFDPLGGVKRGSLTIAKLLKEHQGIFTFLCEICFDSKPRIISKGTKDSPSVCSNLAAKHSFYNNKCLVHIVRSTSLKYSKIRQFQEHFQFDVCRHEVRYGCLREDSCHFAHSFIELKVWLLQQYSGMTHEDIVQESKKYWQQMEAHAGKASSSMGAPRTHGPSTFDLQMKFVCGQCWRNGQVVEPDKDLKYCSAKARHCWTKERRVLLVMSKAKRKWVSVRPLPSIRNFPQQYDLCIHAQNGRKCQYVGNCSFAHSPEERDMWTFMKENKILDMQQTYDMWLKKHNPGKPGEGTPISSREGEKQIQMPTDYADIMMGYHCWLCGKNSNSKKQWQQHIQSEKHKEKVFTSDSDASGWAFRFPMGEFRLCDRLQKGKACPDGDKCRCAHGQEELNEWLDRREVLKQKLAKARKDMLLCPRDDDFGKYNFLLQEDGDLAGATPEAPAAAATATTGE [ZC3H7B] | 0.118 | -0.354 | 48 | 47.6 | 1.16 | 1.26
MHRRGVGAGAIAKKKLAEAKYKERGTVLAEDQLAQMSKQLDMFKTNLEEFASKHKQEIRKNPEFRVQFQDMCATIGVDPLASGKGFWSEMLGVGDFYYELGVQIIEVCLALKHRNGGLITLEELHQQVLKGRGKFAQDVSQDDLIRAIKKLKALGTGFGIIPVGGTYLIQSVPAELNMDHTVVLQLAEKNGYVTVSEIKASLKWETERARQVLEHLLKEGLAWLDLQAPGEAHYWLPALFTDLYSQEITAEEAREALP [SNF8] | 0.0161 | 0.377 | 52.9 | 51.5 | -0.788 | -0.397
MVEADRPGKLFIGGLNTETNEKALETVFGKYGRIVEVLLIKDRETNKSRGFAFVTFESPADAKDAARDMNGKSLDGKAIKVEQATKPSFERGRHGPPPPPRSRGPPRGFGAGRGGSGGTRGPPSRGGHMDDGGYSMNFNMSSSRGPLPVKRGPPPRSGGPSPKRSAPSGLVRSSSGMGGRAPLSRGRDSYGGPPRREPLPSRRDVYLSPRDDGYSTKDSYSSRDYPSSRDTRDYAPPPRDYTYRDYGHSSSRDDYPSRGYGDRDGYGRDRDYSDHPSGGSYRDSYESYGNSRSAPLTRGPPPSYGGSSRYDDYSSSRDGYGGSRDSYSSSRSDLYSSCDRVGRQERGLPPSVERGYPSSRDSYSSSSRGAPRGAGPGGSRSDRGGGRSRY [RBMXL1] | 0.637 | -0.598 | 46.5 | 51 | -0.08 | 0.0725
MREIVHIQAGQCGNQIGAKFWEVISDEHGIDPTGTYHGDSDLQLDRISVYYNEATGGKYVPRAILVDLEPGTMDSVRSGPFGQIFRPDNFVFGQSGAGNNWAKGHYTEGAELVDSVLDVVRKEAESCDCLQGFQLTHSLGGGTGSGMGTLLISKIREEYPDRIMNTFSVVPSPKVSDTVVEPYNATLSVHQLVENTDETYCIDNEALYDICFRTLKLTTPTYGDLNHLVSATMSGVTTCLRFPGQLNADLRKLAVNMVPFPRLHFFMPGFAPLTSRGSQQYRALTVPELTQQVFDAKNMMAACDPRHGRYLTVAAVFRGRMSMKEVDEQMLNVQNKNSSYFVEWIPNNVKTAVCDIPPRGLKMAVTFIGNSTAIQELFKRISEQFTAMFRRKAFLHWYTGEGMDEMEFTEAESNMNDLVSEYQQYQDATAEEEEDFGEEAEEEA [TUBB] | -0.117 | 0.245 | 56.4 | 54.4 | 0.696 | -1.83
MREYKLVVLGSGGVGKSALTVQFVQGIFVEKYDPTIEDSYRKQVEVDCQQCMLEILDTAGTEQFTAMRDLYMKNGQGFALVYSITAQSTFNDLQDLREQILRVKDTEDVPMILVGNKCDLEDERVVGKEQGQNLARQWCNCAFLESSAKSKINVNEIFYDLVRQINRKTPVEKKKPKKKSCLLL [RAP1A] | -0.0963 | 0.0631 | 58.5 | 57.6 | 1.29 | -0.46
MKCVFVTVGTTSFDDLIACVSAPDSLQKIESLGYNRLILQIGRGTVVPEPFSTESFTLDVYRYKDSLKEDIQKADLVISHAGAGSCLETLEKGKPLVVVINEKLMNNHQLELAKQLHKEGHLFYCTCRVLTCPGQAKSIASAPGKCQDSAALTSTAFSGLDFGLLSGYLHKQALVTATHPTCTLLFPSCHAFFPLPLTPTLYKMHKGWKNYCSQKSLNEASMDEYLGSLGLFRKLTAKDASCLFRAISEQLFCSQVHHLEIRKACVSYMRENQQTFESYVEGSFEKYLERLGDPKESAGQLEIRALSLIYNRDFILYRFPGKPPTYVTDNGYEDKILLCYSSSGHYDSVYSKQFQSSAAVCQAVLYEILYKDVFVVDEEELKTAIKLFRSGSKKNRNNAVTGSEDAHTDYKSSNQNRMEEWGACYNAENIPEGYNKGTEETKSPENPSKMPFPYKVLKALDPEIYRNVEFDVWLDSRKELQKSDYMEYAGRQYYLGDKCQVCLESEGRYYNAHIQEVGNENNSVTVFIEELAEKHVVPLANLKPVTQVMSVPAWNAMPSRKGRGYQKMPGGYVPEIVISEMDIKQQKKMFKKIRGKEVYMTMAYGKGDPLLPPRLQHSMHYGHDPPMHYSQTAGNVMSNEHFHPQHPSPRQGRGYGMPRNSSRFINRHNMPGPKVDFYPGPGKRCCQSYDNFSYRSRSFRRSHRQMSCVNKESQYGFTPGNGQMPRGLEETITFYEVEEGDETAYPTLPNHGGPSTMVPATSGYCVGRRGHSSGKQTLNLEEGNGQSENGRYHEEYLYRAEPDYETSGVYSTTASTANLSLQDRKSCSMSPQDTVTSYNYPQKMMGNIAAVAASCANNVPAPVLSNGAAANQAISTTSVSSQNAIQPLFVSPPTHGRPVIASPSYPCHSAIPHAGASLPPPPPPPPPPPPPPPPPPPPPPPPPPPALDVGETSNLQPPPPLPPPPYSCDPSGSDLPQDTKVLQYYFNLGLQCYYHSYWHSMVYVPQMQQQLHVENYPVYTEPPLVDQTVPQCYSEVRREDGIQAEASANDTFPNADSSSVPHGAVYYPVMSDPYGQPPLPGFDSCLPVVPDYSCVPPWHPVGTAYGGSSQIHGAINPGPIGCIAPSPPASHYVPQGM [ALG13] | 0.0555 | 0.392 | 53.4 | 52.2 | 2.01 | -0.34
